This is an account of results in patent US20230064703A1.

Where a chain is given by its changes, count along the chain named.

First the molecules themselves.
B1: anti-GITR mouse monoclonal antibody 223F12C4 (antibody, V domains shown)
VH: QVQLQQSGAELVKPGASVKVSCKASGYSFTSYWIHWVKQRPGQGLEWIGRIHPSDGDIDHNEKFKGKATLTVDKSSSTAYMQLTSLTSEDSAVYYCLCYIMDYWGQGTSVTVSS
VL: DIQMNQSPSSLSASLGDTIAITCHASQNINVWLSWYQQKPGNIPKLLIYKAAKLQTGVPSRFSGSGSGTGFTLTISSLQPEDIATYYCHQGQDYPLTFGAGTKLELK
B2: anti-GITR mouse monoclonal antibody 384H3H11 (antibody, V domains shown)
VH: QVQLKQSGPGLVQPSQSLSITCTVSGFSLTSYGVHWVRQSPGKGLEWLGVIWSGGSTDYNAAFISRLSISKDNSKSQVFFKMNSLQANDTAIYYCARIGLRSFAYWGQGTLVTVSA
VL: DIVMTQSPSSLTVTAGEKVTMSCKSSQSLLNSGNQKNYLTWYQQKPGQPPKLLIYWASTRESGVPDRFTGSGSGTDFTLTISSVQAEDLAVYYCQNDYSYPFTFGSGTKLEIK
B3: anti-GITR mouse monoclonal antibody 225H7D12 (antibody, V domains shown)
VH: QVQLQQSGAEVMKPGASVKLSCKTTGYRFTGYWIEWVKQRPGHGLEWIGEILPGSGVSNNNEKFRDKATFTADTSSNTAYIQLSSLTTDDSAIYYCARKASYYTMDYWGQGTSVTVSS
VL: QIVLTQSPAIMSASLGERVTMTCTASSSVSSFYFHWYQQKPGSSPKLWIYSISNLASGVPTRFSGSGSGTSYSLTISSMEAEDAATYYCHQYHRSPRTFGGGTKLEIK
B4: anti-GITR mouse monoclonal antibody 225A8D9 (antibody, V domains shown)
VH: QVQLQQSGPELVKPGASVKISCKASGYAFSSSWMNWVKQRPGKGLEWIGRIYPGDGNINYDGKFKGEATLTADKSSSTAYIQLSSLTSEDSAVYFCARSAWLGKTYVMDYWGQGTSVTVSS
VL: EIVVTQSPAITAASLGQKVTITCSASSSVTYMNWYQQKSGTSPKPWIYEISKLASGVPAHFSGSGSGTSYSLTISSLEAEDAAIYYCQQWNFPFTFGSGTKVEIR
B5: anti-GITR mouse monoclonal antibody 204C10G12 (antibody, V domains shown)
VH: QVQLQQPGAELVKPGASVKMSCKASGYTFTSYWITWVKQRPGQGLEWIGDIYPGSDSTNYNEKFKNKATLTVDTSSSTAYMQLSSLTSEDSAVYYCARGDDFWYFDVWGTGTTVTVSS
VL: DVLMTQTPLSLPVSLGDQASISCRSSQSIVHSNGNTYLEWYLQKPGQSPKLLIYKVSNRFSGVPDRFSGSGSGTDFTLKISRVEAEDLGVYYCFQGSHVPLTFGAGTKLELK
B6: anti-GITR mouse monoclonal antibody 223H11H1 (antibody, V domains shown)
VH: EVQLQQSGPELVKPGASVKISCKASGYTFTAHYMNWVKKSQGKSLEWIGDINPDNGIIRYNQKFKDKATLTVDKSSSTVFLEFRSLASEDSAVYYCARREALDYWGQGSSVTVSS
VL: DVLMTQIPLSLTVSLGDQASISCRSSQSIVYSNGKVYLNWYQQKPGQSPKLLIYKVSDRFSGVPDRFSGSGSGTDFTLKINRVEAEDLGVYYCLQGSHIPWTFGGGTKLEIK
B7: anti-GITR mouse monoclonal antibody 45F1F3 (antibody, V domains shown)
VH: DVQLQESGPGLVKPSQSLSLTCTVTGYSITIDYAWNWIRQFPGNKLEWMGYISNSGYTSYNPSLKSRISFTRDTSKNQFFLQLNSVTPEDSATYYCTRSGHYDLFDYWGQGTTLTVSS
VL: DVVMTQAPLTLSVTIGQPASISCKSSQSLFDRDGKTYLSWLLERPGQSPKRLIYLVSNLDSGVPDRFTGSGSGTDFTLKISRVEAEDLGVYYCWQGTHFPYTFGGGTKVEMK
B8: anti-GITR mouse monoclonal antibody 274C7H2 (antibody, V domains shown)
VH: QVQLQQSGAELAKPGASVKLSCKASGYTFTSYWMHWVKQRPGQGLEWIGYINPSSGYTKYNQKFKDKATLTADKSSSTAYMQLSSLTYEDSAVYYCARNPSYDYYAMDYWGQGTSVTVSS
VL: QAVVTQESALTTSPGETVTLTCRSSTGAVTTSNYANWVQEKPDHLFTGLIGGTNNRAPGVPARFSGSLIGDKAALTITGAQTEDEAIYFCALWYSNHFIFGSGTKVTVL
B9: humanized antibody 45F1F3 VH1.1 + VL1 (antibody, V domains shown)
VH: QVQLQESGPGLVKPSQTLSLTCTVTGYSITIDYAWNWIRQPPGKGLEWIGYISNSGYTSYNPSLKSRVTFSRDTSKNQFSLKLSSVTAADTAVYYCTRSGHYDLFDYWGQGTTVTVSS
VL: DVVMTQSPLSLPVTLGQPASISCKSSQSLFDRDGKTYLSWFQQRPGQSPRRLIYLVSNLDSGVPDRFSGSGSGTDFTLKISRVEAEDVGVYYCWQGTHFPYTFGGGTKVEIK
B10: humanized antibody 270C5C10 VH1.2 + VL1 (antibody, V domains shown)
VH: QVQLVQSGAEVKKPGASVKVSCKASGYTFTDNYMNWVRQAPGQSLEWIGDINPNNGGSRYKEKFKDRATLTVDTSIRTAYMELSRLRSDDTAVYYCANPGSYGFAYWGQGTLVTVSS
VL: B9 VL with F30L, R32S, K35R, S39N, N58Q, Y101W, V109L
B11: chimeric antibody 223F12C4 (human IgG1) (antibody, V domains shown)
VH: B1 VH
VL: DIQMNQSPSSLSASLGDTIAITCHASQNINVWLSWYQQKPGNIPKLLIYKAAKLQTGVPSRFSGSGSGTGFTLTISSLQPEDIATYYCHQGQDYPLTFGAGTKLELKR
B12: chimeric antibody 384H3H11 (human IgG1) (antibody, V domains shown)
VH: B2 VH
VL: DIVMTQSPSSLTVTAGEKVTMSCKSSQSLLNSGNQKNYLTWYQQKPGQPPKLLIYWASTRESGVPDRFTGSGSGTDFTLTISSVQAEDLAVYYCQNDYSYPFTFGSGTKLEIKR
B13: chimeric antibody 172H7B9(H-La) (human IgG1) (antibody, V domains shown)
VH: QVTLKESGPGILQSSQTLSLTCSFSGFSLSPSGMGVTWIRQPSGKGLEWLAHIYWDDVKRYNPSLKSRLTISKDTSRNQVFLKITGVDTADTATYYCARRGSYSDYGGWSFDVWGTGTTVTVSS
VL: B12 VL with T12S, T14S, L30F, T40A, W56G, T75S, Y98H, F102P
B14: chimeric antibody 225A8D9 (human IgG1) (antibody, V domains shown)
VH: B4 VH
VL: EIVVTQSPAITAASLGQKVTITCSASSSVTYMNWYQQKSGTSPKPWIYEISKLASGVPAHFSGSGSGTSYSLTISSLEAEDAAIYYCQQWNFPFTFGSGTKVEIRR
B15: chimeric antibody 204C10G12 (human IgG1) (antibody, V domains shown)
VH: B5 VH
VL: DVLMTQTPLSLPVSLGDQASISCRSSQSIVHSNGNTYLEWYLQKPGQSPKLLIYKVSNRFSGVPDRFSGSGSGTDFTLKISRVEAEDLGVYYCFQGSHVPLTFGAGTKLELKR
B16: chimeric antibody 274C7H2 (human IgG1) (antibody, V domains shown)
VH: B8 VH
VL: QAVVTQESALTTSPGETVTLTCRSSTGAVTTSNYANWVQEKPDHLFTGLIGGTNNRAPGVPARFSGSLIGDKAALTITGAQTEDEAIYFCALWYSNHFIFGSGTKVTVLR

The first assay deals with human GITR expressed on Cho-K1 cells (human) (UniProt Q9Y5U5). The experiment in a line: FACS, Cho-K1 cells expressing human GITR, mouse mAb, iFluor 647 anti-mouse IgG detection. For orientation: In flow cytometry, cells or beads pass a laser one at a time.
Chain of human GITR expressed on Cho-K1 cells (human) (Q9Y5U5 26-241): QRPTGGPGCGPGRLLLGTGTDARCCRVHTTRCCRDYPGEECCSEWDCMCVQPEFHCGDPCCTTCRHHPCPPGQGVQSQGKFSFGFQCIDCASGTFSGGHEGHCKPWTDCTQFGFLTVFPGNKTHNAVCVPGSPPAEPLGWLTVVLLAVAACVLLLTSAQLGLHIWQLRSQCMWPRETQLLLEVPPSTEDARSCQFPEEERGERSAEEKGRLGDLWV
By EC50 is commonly meant the concentration giving half of the maximal effect. The low end stands for a more potent agent, the high end for a less potent agent. The molecule B1 returned an EC50 of 0.000454 µg/mL.

Molecule B2 had an EC50 of 0.00497 µg/mL.

B3: the EC50 was 0.000522 µg/mL. Against the preceding molecule, the EC50 is about 9.5-fold lower.

Consider B4, for which the concentration for a half-maximal effect (EC50) worked out at 0.0026 µg/mL.

The molecule B5 registered a half-maximal effective concentration (EC50) of 0.000199 µg/mL.

Consider B6, for which the EC50 is 0.000931 µg/mL.

Molecule B7 yielded an EC50 of 0.000508 µg/mL.

Consider B8, for which the concentration giving a half-maximal response (EC50) stood at 0.141 µg/mL.

Another assay shares this target. The experiment in a line: FACS binding assay with GITR/Cho-K1, humanized antibody.
Molecule B9 yielded a concentration for a half-maximal effect (EC50) of 0.107 µg/mL.

Molecule B10 yielded an EC50 of 0.0424 µg/mL.

The next assay has the same target. The experiment in a line: FACS, chimeric antibody on GITR/Cho-K1 cells, geometric mean, 4-parameter fit.
Molecule B11 came in with a 50% effective concentration (EC50) of 1.59 µg/mL.

The molecule B12 had an EC50 of 219 µg/mL. Against the preceding molecule, the EC50 is about 140-fold higher.

Regarding B13, the 50% effective concentration (EC50) was determined as 0.0499 µg/mL.

Take B14: the half-maximal effective concentration (EC50) stood at 0.252 µg/mL.

Regarding B15, the EC50 was 19400 µg/mL.

In turn, B16 gave an EC50 of 331 µg/mL.
